Measurements published in paper doi:10.1101/2024.06.19.598823 (bioRxiv, 2024).

Biological target: RBD protein of SARS-like CoV WIV16 (Bat SARS-like coronavirus WIV16)
Assay: ELISA

B1: nanobody 7F (VHH)
VHH: EVQLVESGGGLVEAGGSLRLSCVASGLTFSDYTMAWFRQVPGQEREFVSHIGWGGSETYYADSVKGRFTISRDNAKNAMYLQMNELKPDDTAVYYCAADRGSSFYYVRESEYTFWGQGTQVTVSS
binding result: binds
